Self-cleavage data for 32 variants are collected here from the RNAGym collection of RNA variant scans (doi:10.7554/elife.80360).

B1: HDV Ribozyme (parent)
chain: GGCCGGCAUGGUCCCAGCCUCCUCGCUGGCGCCGGCUGGGCAACAUUCCGAGGGGACCGUCCCCUCGGUAAUGGCGAAUGGGACCCA

Variants of B1 are the subject of the data set. Kind of data set: self-cleavage, relative activity (ratio to wild type); higher = more cleavage; co-transcriptional.
On to GGCCGGCAUGGUCCCAGCCUCCGCGCUGCCGCCGGCUGGGCAACAUUCCGAGGGGACCGUCCCCUCGGUAAUGGCGAAUGGGACCCA [U23G G29C], for which the self-cleavage was determined as 0.196.

For GGCCGGCAUGGUCCCAGCCUCCUCGCUGGCGCCAGCUGGGCAACAUUCCGAGGGGCCCGUCCCCUCGGUAAUGGCGAAUGGGACCCA [G34A A56C], the self-cleavage came out at 0.151.

GGCCGGCAUGGUCCCAGCCUCCUCGCUGGCGCCGGCUGGGCAACAUUCCGCGGGGAUCGUCCCCUCGGUAAUGGCGAAUGGGACCCA [A51C C57U]: the self-cleavage turned out to be 0.969.

As for GGCCGGCAUGGUCCCAGCCUCCUCGCUGGCGCCGGCUGGGCAACAUGCCGAGGGGACCGUCCCCUCGCUAAUGGCGAAUGGGACCCA [U47G G68C], the self-cleavage turned out to be 0.499.

In the case of GGCCGGCAUGGUCCCAGCCUCCUCGCUGGCGCCGGCUGGGCAACAUUCCGAGAGGACCGUCCCCUCGGUAAUGUCGAAUGGGACCCA [G53A G74U], the self-cleavage is 0.59.

As for GGCCGGCAUGGUCCCAGCCUCCUCGCUGGCGCCGGCUAGGCAACAUUCCGAGGGGAUCGUCCCCUCGGUAAUGGCGAAUGGGACCCA [G38A C57U], the self-cleavage turned out to be 0.211.

With GGCCGGCAUGGUCCCAGCCUCCUCGCUGGCGCCGGCUGGGCAACAUUCCGAGGGGACCGUCCCCUCGGAAAUGGCGAACGGGACCCA [U69A U79C], the self-cleavage stood at 0.499.

For the variant GGCCGGCAUGGUCCCAGCCUCCUGGCUGGCGCCGGCUGGGCAACAUUCCGAGGGGACCGUCCCCUCGGUAAUGGCGAAUGGGACCAA [C24G C86A], the self-cleavage came to 0.106.

GGCCGGCAUGCUCCCAGCCUCCUCGCUGGCGCCGGCUGGGCAACAUUCCGAGGGGACCGUCCCCUCGCUAAUGGCGAAUGGGACCCA [G11C G68C]: the self-cleavage came to 0.0831.

Consider GGCCGGCAUGGUCCCAGCCUGCUCGCCGGCGCCGGCUGGGCAACAUUCCGAGGGGACCGUCCCCUCGGUAAUGGCGAAUGGGACCCA [C21G U27C], for which the self-cleavage worked out at 0.217.

On to GGCCGGCAUGGUCCUAGCCUCCUAGCUGGCGCCGGCUGGGCAACAUUCCGAGGGGACCGUCCCCUCGGUAAUGGCGAAUGGGACCCA [C15U C24A], for which the self-cleavage was 0.482.

Take GGCCGGCAUGGUCCCAGCCUUCUCGCUGGCGCCGGCUGGGCAACAUUCCGAGGGGACCGUGCCCUCGGUAAUGGCGAAUGGGACCCA [C21U C61G]: the self-cleavage was found to be 0.277.

GGCCGGCAUGGUCCCAGCCUCCUCGCUGGCGCCGGCUGGGCAACAUUCCGUGGGGACCGUCCCCUCGGUAAUGGCGAAUGGGACCUA [A51U C86U]: the self-cleavage was 0.831.

Turning to GGCCGGCAAGGUCCCAGCCUCCUCGCUGGCGCGGGCUGGGCAACAUUCCGAGGGGACCGUCCCCUCGGUAAUGGCGAAUGGGACCCA [U9A C33G], the self-cleavage was 0.0692.

Take GGCCGGCAUGGUCCCAGCCUCCUCGCUGGCGCCGGCUGGGCAACAUUCCGAGGGGACGGUCCCCUCGGUAAUGGCGAAUGGGACACA [C58G C85A]: the self-cleavage is 1.05.

On to GUCCGGCAUGGUCCCAGCCUCCUCGCUGGCGCCGGCUUGGCAACAUUCCGAGGGGACCGUCCCCUCGGUAAUGGCGAAUGGGACCCA [G2U G38U], for which the self-cleavage came to 0.0126.

As to GGCCGGCAUGGUCCCAGCCUCCUCGCUGGCGCCGGCUGGGUAACAUUCCGAGGGGACCGUCCCCUCGGUAAUGGCGAAUGGGCCCCA [C41U A83C], the self-cleavage came out at 0.332.

Consider GGCCGGCAUGGUCCCAGUCUCCUCGCUGGCGCCGGCUGGGCAACAUUCCGAGGGGACCGUCCCCUCGGUAAUGGCGAAAGGGACCCA [C18U U79A], for which the self-cleavage came out at 0.178.

In the case of GGCCGGCAUGGUCCCAGCCUCUUCGCUGGCGCCGGCUGGGCAACAUUCCGAGGGGACCGUCCCCUCGCUAAUGGCGAAUGGGACCCA [C22U G68C], the self-cleavage amounted to 0.345.

Take GGCCGGCAUGGUCCCAGCCUCCUGGCUGGCGCCUGCUGGGCAACAUUCCGAGGGGACCGUCCCCUCGGUAAUGGCGAAUGGGACCCA [C24G G34U]: the self-cleavage was 0.0268.

As for GGCCGGCAUGGUCCCGGCCACCUCGCUGGCGCCGGCUGGGCAACAUUCCGAGGGGACCGUCCCCUCGGUAAUGGCGAAUGGGACCCA [A16G U20A], the self-cleavage is 0.138.

GGCCGGCAUGGGCCCAGUCUCCUCGCUGGCGCCGGCUGGGCAACAUUCCGAGGGGACCGUCCCCUCGGUAAUGGCGAAUGGGACCCA [U12G C18U]: the self-cleavage was found to be 0.361.

As to GGCCGGCAUGGUCCCAGCCUCCUCGCUGGCGCCGGCUGGGCAACAUUCCGAGGGGACCGUCGCCGCGGUAAUGGCGAAUGGGACCCA [C62G U65G], the self-cleavage stood at 0.32.

Turning to GACCGGCAUGGUCCCAGCCUCCUCGCUGGCGCCGGCUGGGCUACAUUCCGAGGGGACCGUCCCCUCGGUAAUGGCGAAUGGGACCCA [G2A A42U], the self-cleavage was found to be 0.0804.

With GGCCGGCAUGGUCCCAGCCACCUCGCUGGCGCCGGCUGGGCAACAUUCCGAGGGGACCGUGCCCUCGGUAAUGGCGAAUGGGACCCA [U20A C61G], the self-cleavage came to 0.0536.

For GGCCGGCAUGGUCCCAGCCUCCUCGCUGGCGCCUGCUGGGCAACAUUCCGAGGGGACCGUCCCCUCGGUCAUGGCGAAUGGGACCCA [G34U A70C], the self-cleavage stood at 0.17.

On to GGCCGGCAUGGUCCCAGCCUCCUCGCUGGCGCCGGCUGGGCAACAUUCCGAGAGGACCCUCCCCUCGGUAAUGGCGAAUGGGACCCA [G53A G59C], for which the self-cleavage was 0.872.

For the variant GGCCGGCAUGGUCCCAGCUUCCUCGCUGGCGCCGGCUGGGCAACAUUCCGAGGGGACCGUCCCCUCGGUACUGGCGAAUGGGACCCA [C19U A71C], the self-cleavage worked out at 0.0898.

In the case of GGCCGGCAUGGUCCCAGCCUCCUCGCUGGCGCCGGUUGGGCAACAUUCCGAGGGGACCGUCCCCUCGGUAAUGGCGAAUGGGAUCCA [C36U C84U], the self-cleavage turned out to be 0.716.

For the variant GGCCGGCAUGGUCCCAGCCUCCUCGCUACCGCCGGCUGGGCAACAUUCCGAGGGGACCGUCCCCUCGGUAAUGGCGAAUGGGACCCA [G28A G29C], the self-cleavage was determined as 0.0519.

Regarding GGCCGGCAUGGUCCCAGCCUCCUCGCUGGCGCCGGCUGGGCAACAGUCCGAGGGGACCGUCCCCUCGGUAAUGGCGAAUGGGACCCG [U46G A87G], the self-cleavage was 0.724.

As for GGCCGGCCUGGUCCCAGCCUCCUCGCUGGCGCCGGCUGGGCAACAUUCCGAGGGGACCGUCCCCUCGGUAAUGGCGAAUGGGACCCA [A8C], the self-cleavage is 0.859.
